Results as given in US10888547B2, “Amorphous and a crystalline form of genz 112638 hemitartrate as inhibitor of glucosylceramide synthase” (Genzyme Corporation, priority 2009, dated 2021).

What was measured:
[1] = Aqueous solubility; format: physicochemical; conditions: in water
[2] = Hygroscopicity of salts and free base; format: physicochemical
[3] = test system: cytochrome P450 enzymes; assay: Hepatic metabolism by cytochrome P450 enzymes; format: in vitro ADME, human; conditions: liver
Source text: Cytochrome P450s (“CYPs”) are the principal hepatic xenobiotic metabolizing enzymes. There are eleven xenobiotic-metabolizing cytochrome P450s expressed in a typical human liver (i.e., CYP1A2, CYP2A6, CYP2B6, CYP2C8/9/18/19, CYP2D6, CYP2E1 and CYP3A4/5). […] The level of activity of P450 enzymes differs according to the individual. For example, individuals can be classified as poor, intermediate and extensive/ultra rapid P450 metabolizers. Because lower levels of P450 activity in an individual can give rise to drug/drug interactions (“DDI”), another embodiment of the invention is to determine whether the subject is a poor, intermediate and extensive/ultra rapid P450 metabolizer. […] The dose can raised incrementally and the subject retested once, twice, three, four or as many times as necessary to achieve an adjusted effective dose.

[4] = test system: Fabry-Rag mice; assay: Combination ERT/SRT therapy of Fabry-Rag mice; format: in vivo, mouse; conditions: ERT 1 mg/kg α-galactosidase A i.v., SRT 300 mg/kg daily in diet
Description: For the combination therapy studies, Fabry-Rag mice were put on study at 3 months old (treatment model). Mice in group A received intravenous injections of recombinant human alpha-galactosidase A (Genzyme Corp.) at a dose of 1 mg/kg every 2 months (i.e. 3, 5, 7 and 9 months old). Group B received the same intravenous enzyme doses plus it received Formula (I) Hemitartrate (Genzyme Corp., Cambridge, Mass.) as a component of the pellet food diet. The drug was formulated at 0.15% (w/w) in standard 5053 mouse chow (TestDiet, Richmond, Ind.) and provided ad libitum. […] Group C received enzyme injections every 4 months (i.e. 3 and 7 months old) and was on the same drug-in-food diet as group B. Group D received only the drug-in-food diet (same as groups B and C). Group E was untreated Fabry-Rag mice and group F were wild-type controls.
Quantitation of GL-3 was by Tandem Mass Spectrometry essentially as for GL-1.
Hot plate Assay was performed as described previously (Ziegler, R J et al. Molec. Ther. 15(3), 492-500 (2007).
Beginning at three-months of age, the mice were subjected to a schedule of behavioral tests (i.e. hot-plate assay) and biochemical tests (i.e., GL-3 level analysis in tissues/blood/urine), as shown in FIG. 10.

[5] = test system: Gaucher mice (D409V/null); assay: Glucocerebrosidase dosing regimen for debulking GL1 in Gaucher mice; format: in vivo, mouse; conditions: for reduction of GL1 levels in the liver: 7 days after last infusion
Description: To investigate the relative merits of combination and monotherapy with either enzyme or substrate reduction therapy, the enzyme regimen that maximally depleted GL1 levels in the visceral organs of Gaucher mice was first determined. Three month-old Gaucher mice (D409V/null) were intravenously administered 2, 4 or 8 doses of 10 mg/kg recombinant human glucocerebrosidase. The mice that were treated with 2 or 4 doses of the enzyme received drug infusions every 3 days while those that were treated with 8 doses received the enzyme every 2 days. The use of a shorter time interval between infusions in animals that received 8 treatments was designed to minimize the potential impact of any immune response to the administered human enzyme. The animals were killed 7 days following the last enzyme infusion and the amount of GL1 remaining in their livers, spleens, and lungs were measured.

[6] = test system: Gaucher mice (D409V/null); assay: Separate and sequential enzyme and substrate reduction therapy in Gaucher mice; format: in vivo, mouse
Source text: Procedures involving animals were reviewed and approved by the Institutional Animal Care and Use Committee (IACUC) at Genzyme Corporation following the guidelines issued by the Association for Assessment and Accreditation of Laboratory Animal Care (AAALAC). […] The study had 6 groups of mice with group A being sacrificed after 2 weeks to provide baseline levels of tissue glucosylceramide. Groups B, C, and D all received recombinant human glucocerebrosidase (Genzyme Corp., Cambridge, Mass.) (10 mg/kg) intravenously via a tail-vein (100 μL) every 2 days for a total of 8 injections. Group B was sacrificed at the end of this regimen (at the same time as group A) to provide enzyme-reduced levels of tissue glucosylceramide. Groups D and E were both fed Formula (I) Hemitartrate (Genzyme Corp., Cambridge, Mass.) as a component of the pellet food diet. The drug was formulated at 0.075% (w/w) in standard 5053 mouse chow (TestDiet, Richmond, Ind.) and provided ad libitum. […] Group F received no treatment and was sacrificed along with groups C, D and E 12 weeks after the start of the study. Food consumption and mouse weights were monitored three times per week to determine drug intake and the potential impact of the drug on overall health. Animals were killed by carbon dioxide inhalation and their tissues harvested immediately. Half of each tissue was snap frozen on dry ice and stored at −80° C. until ready for further processing. The other half was processed for histological analysis.
Glucosylceramide levels were quantified by mass spectrometry as described previously (see K. McEachern, et al., J. Gene. Med. 8 (2006) 719-729; T. Doering, J. Biol. Chem. 274 (1999) 11038-11045, the entire teachings of both are incorporated herein by reference). A known mass of tissue was homogenized in 2:1 (v/v) chloroform:methanol and incubated at 37° C. for 15 min. Samples were centrifuged and the supernatants were extracted with 0.2 volumes of water overnight at 4° C. The samples were centrifuged, the aqueous phase was discarded, and the organic phase was dried down to a film under nitrogen. For electrospray ionization mass spectrometry (ESI/MS) analysis, tissue samples were reconstituted to the equivalent of […] original tissue weight in 1 ml chloroform:methanol (2:1, v/v) and vortexed for 5 min. Aliquots (40 μL) of each sample were delivered to Waters total recovery vials and 50 μL of a 10 μg/mL d3-C16-GL-1 internal standard (Matreya, Inc., Pleasant Gap, Pa.) was added. Samples were dried under nitrogen and reconstituted with 200 μL of 1:4 (v/v) DMSO:methanol. ESI/MS analysis of glucosylceramides of different carbon chain lengths was performed on a Waters alliance HPLC (Separation Module 2695) coupled to a Micromass Quattro Micro system equipped with an electrospray ion source. Lipid extract samples (20 μL) were injected onto a C8 column ([…] i.d; Phenomenex, Torrance, Calif.) at 45° C. and eluted with a gradient of 50 to 100% acetonitrile (2 mM ammonium acetate, 0.1% formic acid) at 0.5 mL/min. The first 0.5 min. was held at 50% organic and then quickly switched to 100% for the final 3.5 min. The source temperature was held constant at 150° C. and nitrogen was used as the desolvation gas at a flow rate of 670 L/h. The capillary voltage was maintained at 3.80 KV with a cone voltage of 23 V, while the dwell time for each ion species was 100 ms. Spectra were acquired by the MRM mode to monitor eight dominant isoforms (C16:0, C18:0, C20:0, C22:1, C22:0, C22:1-OH, C24:1, and C24:0). Quantitation of glucosylceramide was based on the sum of these eight isoforms relative to the internal standard, with a calibration curve ranging from 0.1 to 10 μg/mL.
For histological analysis, tissues were fixed in zinc formalin (Electron Microscopy Sciences, Hatfield, Pa.) at room temperature for 24 h, then stored in PBS at 4° C. until ready for further processing. […]

With `CCCCCCCC(=O)N[C@H](CN1CCCC1)[C@H](O)c1ccc2c(c1)OCCO2` [Formula (I) Free Base] the Aqueous solubility [1] was 0.04 mg/mL, the “Hygroscopicity (40° C./75% RH)” value ([2]; 40° C./75% RH) was “None” and the “primary cytochrome P450 isoforms responsible for de-toxifying the compound” value [3] was “CYP2D6 and CYP3A4”.

With `CCCCCCCC(=O)N[C@H](CN1CCCC1)[C@H](O)c1ccc2c(c1)OCCO2` [hydrochloric acid (1:1)] the “hygroscopicity of the solid salt” value ([2]; salt screen, Example 1) was “hygroscopic”.

B1: ERT: enzyme replacement therapy in Fabry-Rag mice: recombinant human alpha-galactosidase A (Genzyme Corp.), 1 mg/kg intravenous (protein, UniProt P06280 32-429, looked up)
Alpha-galactosidase A: LDNGLARTPTMGWLHWERFMCNLDCQEEPDSCISEKLFMEMAELMVSEGWKDAGYEYLCIDDCWMAPQRDSEGRLQADPQRFPHGIRQLANYVHSKGLKLGIYADVGNKTCAGFPGSFGYYDIDAQTFADWGVDLLKFDGCYCDSLENLADGYKHMSLALNRTGRSIVYSCEWPLYMWPFQKPNYTEIRQYCNHWRNFADIDDSWKSIKSILDWTSFNQERIVDVAGPGGWNDPDMLVIGNFGLSWNQQVTQMALWAIMAAPLFMSNDLRHISPQAKALLQDKDVIAINQDPLGKQGYQLRQGDNFEVWERPLSGLAWAVAMINRQEIGGPRSYTIAVASLGKGVACNPACFITQLLPVKRKLGFYEWTSRLRSHINPTGTVLLQLENTMQMSLKDLL
With B1 the onset of heat-insensitivity [4] was “not”, the “urine GL-3 levels” value [4] was “does not” and the “blood GL-3 levels” value ([4]; from 3 months of age) was “reduces”.

B2: recombinant glucocerebrosidase: recombinant human glucocerebrosidase (Genzyme Corp.), enzyme therapy given to Gaucher mice (protein, UniProt P04062 40-536, looked up)
Lysosomal acid …: ARPCIPKSFGYSSVVCVCNATYCDSFDPPTFPALGTFSRYESTRSGRRMELSMGPIQANHTGTGLLLTLQPEQKFQKVKGFGGAMTDAAALNILALSPPAQNLLLKSYFSEEGIGYNIIRVPMASCDFSIRTYTYADTPDDFQLHNFSLPEEDTKLKIPLIHRALQLAQRPVSLLASPWTSPTWLKTNGAVNGKGSLKGQPGDIYHQTWARYFVKFLDAYAEHKLQFWAVTAENEPSAGLLSGYPFQCLGFTPEHQRDFIARDLGPTLANSTHHNVRLLMLDDQRLLLPHWAKVVLTDPEAAKYVHGIAVHWYLDFLAPAKATLGETHRLFPNTMLFASEACVGSKFWEQSVRLGSWDRGMQYSHSIITNLLYHVVGWTDWNLALNPEGGPNWVRNFVDSPIIVDITKDTFYKQPMFYHLGHFSKFIPEGSQRVGLVASQKNDLDAVALMHPDGSAVVVVLNRSSKDVPLTIKDPAVGFLETISPGYSIHTYLWRRQ
With B2 the “splenic GL1 levels versus untreated controls” value ([5]; 2 doses of 10 mg/kg i.v.) was “did not significantly alter”, the “reduction of GL1 levels in the liver” value ([5]; 2 doses of 10 mg/kg i.v. every 3 days) was 50% and the “reduction of splenic GL1 levels” value ([5]; 4 or 8 doses of 10 mg/kg i.v.) was “about 50%”. The “reduction of GL1 levels in the liver” value ([5]; 4 or 8 doses of 10 mg/kg i.v.) was “approximately 75%”, the “lung GL1, reduction to % of untreated control” value ([5]; 8 doses of 10 mg/kg i.v. every 2 days) was “approximately 60%” and the “liver histopathology, CD68-positive Gaucher cells” value ([6]; 2 weeks enzyme, then 10 weeks without further treatment) was “re-emergence of Gaucher cells”. For the same molecule, the “liver histopathology, CD68-positive Gaucher cells” value ([6]; enzyme over a period of 2 weeks) was “substantial clearance of the lipid”, the “stored GL1 levels cleared from the liver” value ([6]; group B: 8 doses of 10 mg/kg enzyme over 2 weeks) was “Approximately 80%” and the “reduction of splenic GL1 levels” value ([6]; group B: enzyme alone for 2 weeks) was “approximately 60%”. For the same molecule, the “reduction in substrate (GL1) levels in the lung” value ([6]; group B: enzyme for 2 weeks) was 30%, the “splenic GL1 levels versus untreated control (F)” value ([6]; group C: 2 weeks enzyme, then 10 weeks without further intervention) was “not significantly different” and the “liver GL1 levels versus untreated controls (F)” value ([6]; group C: 2 weeks enzyme, then 10 weeks without further treatment) was “not significantly different”. The “lung GL1 levels versus untreated levels (F)” value ([6]; group C: 2 weeks enzyme, then normal chow for 10 weeks) was “not significantly different”.
